Laboratory results: patent publication US20060121462A1, “Receptor and screening methods” (priority 2003, published 2006)

What was measured:
human C5L2 (human) [1] = target: human C5L2 (human) (UniProt Q9P296); experiment: flow cytometry, binding/uptake of FLUOS-ASP on HEK 293 cells transiently transfected with C5L2, 30 min at 37 C
human C5L2 (human) [2] = target: human C5L2 (human) (UniProt Q9P296); experiment: competition with 50 pM 125I-C3a on C5L2-transfected RBL cells, 4 C
human C5L2 (human) [3] = target: human C5L2 (human) (UniProt Q9P296); experiment: competition with 50 pM 125I-C5a on C5L2-transfected RBL cells, 4 C

Chain of human C5L2 (human) (Q9P296 whole entry): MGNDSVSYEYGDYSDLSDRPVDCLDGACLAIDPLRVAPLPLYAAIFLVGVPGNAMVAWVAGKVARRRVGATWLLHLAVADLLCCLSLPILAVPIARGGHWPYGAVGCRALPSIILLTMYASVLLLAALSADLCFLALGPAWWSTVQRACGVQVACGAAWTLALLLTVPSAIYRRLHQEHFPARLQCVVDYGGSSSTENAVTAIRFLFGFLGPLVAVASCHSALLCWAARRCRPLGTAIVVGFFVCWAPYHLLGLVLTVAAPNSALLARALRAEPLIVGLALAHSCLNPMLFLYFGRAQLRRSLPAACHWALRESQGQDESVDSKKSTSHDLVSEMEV
Chain of recombinant C3a des-Arg^77, P01024 672-747 (ligand; other documents disagree on this pair) (P01024 672-747 limits assumed): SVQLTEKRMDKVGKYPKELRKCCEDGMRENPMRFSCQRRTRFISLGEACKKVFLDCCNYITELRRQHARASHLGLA
Chain of recombinant His6-tagged C3a, P01024 672-748 (ligand; other documents disagree on this pair) (P01024 672-748 limits assumed): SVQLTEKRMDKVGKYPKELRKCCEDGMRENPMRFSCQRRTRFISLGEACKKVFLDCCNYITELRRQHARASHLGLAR

| EC50 (human C5L2 (human) [1]) [µM] | IC50 (human C5L2 (human) [2]) [µM] | pD2 (human C5L2 (human) [2]) | IC50 (human C5L2 (human) [3]) [µM] | pD2 (human C5L2 (human) [3]) | Substance |
| --- | --- | --- | --- | --- | --- |
| 0.003 |  |  |  |  | plasma ASP (C3a des-Arg^77), purified from human plasma, P01024 672-747 (ligand; FLUOS (fluorescein) label in the flow cytometry assays, ^125I label in one assay; labelled residues not stated; other documents disagree on this pair) |
|  | 0.526 | 6.24 -log IC50 | 180 | 4.73 -log IC50 | recombinant C3a des-Arg^77, P01024 672-747 (ligand; other documents disagree on this pair) |
|  | 0.167 | 6.78 -log IC50 | 230 | 4.64 -log IC50 | recombinant His6-tagged C3a, P01024 672-748 (ligand; other documents disagree on this pair) |
